# Biological target: Activated human plasma kallikrein (Enzyme Research Laboratories) (human, UniProt P03952 20-638)
# Assay: cell-based or functional assay
# Chain of Activated human plasma kallikrein (Enzyme Research Laboratories) (P03952 20-638 limits assumed): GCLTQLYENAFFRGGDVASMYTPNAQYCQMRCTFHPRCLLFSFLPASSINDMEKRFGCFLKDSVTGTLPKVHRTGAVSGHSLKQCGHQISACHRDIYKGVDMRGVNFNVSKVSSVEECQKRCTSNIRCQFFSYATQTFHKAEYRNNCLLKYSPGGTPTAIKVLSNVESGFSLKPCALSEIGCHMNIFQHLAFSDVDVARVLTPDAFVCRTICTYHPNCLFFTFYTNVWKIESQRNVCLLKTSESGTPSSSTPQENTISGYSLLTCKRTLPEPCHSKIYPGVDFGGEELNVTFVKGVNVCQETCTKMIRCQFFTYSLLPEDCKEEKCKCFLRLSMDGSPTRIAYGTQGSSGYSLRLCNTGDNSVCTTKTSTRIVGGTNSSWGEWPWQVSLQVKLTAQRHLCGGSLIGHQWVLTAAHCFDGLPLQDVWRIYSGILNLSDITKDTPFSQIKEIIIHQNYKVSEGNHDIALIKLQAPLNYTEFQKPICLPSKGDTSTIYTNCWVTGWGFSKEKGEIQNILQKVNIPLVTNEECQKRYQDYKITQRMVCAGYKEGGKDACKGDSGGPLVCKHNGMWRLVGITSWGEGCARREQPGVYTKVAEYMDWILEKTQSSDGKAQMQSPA
binder,measurement,value
"Lanadelumab (full length anti-pKal antibody) (antibody, IgG1, V domains shown) VH: EVQLLESGGGLVQPGGSLRLSCAASGFTFSHYIMMWVRQAPGKGLEWVSGIYSSGGITVYADSVKGRFTISRDNSKNTLYLQMNSLRAEDTAVYYCAYRRIGVPRRDEFDIWGQGTMVTVSS VL: DIQMTQSPSTLSASVGDRVTITCRASQSISSWLAWYQQKPGKAPKLLIYKASTLESGVPSRFSGSGSGTEFTLTISSLQPDDFATYYCQQYNTYWTFGQGTKVEIK","IC50 (read off the curve), 6.25 nM pKal",~2 nM
same,"IC50 (read off the curve), 12.5 nM pKal",~4 nM

# Source: US20250326861A1 (REGENXBIO, published 2025)
